The target in assay [1] is KaiCAA (KaiC with Ser431 and Thr432 both substituted with alanine), hexamer (T. elongatus BP-1) (UniProt Q79V60). The experiment in a line: native MS; KaiC mutant (20 uM) alone, hexamerised with 1 mM ATP, 5 h at 37°C, exchanged into 150 mM ammonium acetate pH 6.8, nanoflow ESI.
Assay [2] has the same target. The experiment in a line: native MS; KaiC mutant (20 uM) alone, hexamerised with 1 mM AMPPNP, 5 h at 37°C, exchanged into 150 mM ammonium acetate pH 6.8, nanoflow ESI.
In assay [3] the target is KaiC_(AA/E77Q) (KaiCAA with the catalytic glutamate Glu77 of the CI ATPase domain substituted by glutamine), hexamer (T. elongatus BP-1) (UniProt Q79V60). The experiment in a line: native MS; KaiC mutant (20 uM) alone, hexamerised with 1 mM ATP, 5 h at 37°C, exchanged into 150 mM ammonium acetate pH 6.8, nanoflow ESI.
In assay [4] the target is T1, CI hexamer (hexameric CI domain M1–S253) (Thermosynechococcus vestitus, UniProt Q79V60).
T1 construct: gene kaiC; CI domain M1-S253 made by trypsin digestion of KaiCAA (the S431A/T432A sites lie outside), hexamer
The experiment in a line: native mass spectrometry after trypsin digestion. Format: binding. The conditions noted are these: KaiCAA incubated with 1 mM ATP, 37°C, 5 h; 150 mM ammonium acetate; 0.02 mg/ml trypsin up to 60 min.

The target in assay [5] is KaiCDD (KaiC with Ser431 and Thr432 both substituted with aspartate), hexamer (T. elongatus BP-1) (UniProt Q79V60). As to the kind of experiment: native MS; KaiC mutant (20 uM) alone, hexamerised with 1 mM ATP, 5 h at 37°C, exchanged into 150 mM ammonium acetate pH 6.8, nanoflow ESI.
Assay [6] has the same target. As to the kind of experiment: native MS; KaiC mutant (20 uM) alone, hexamerised with 1 mM AMPPNP, 5 h at 37°C, exchanged into 150 mM ammonium acetate pH 6.8, nanoflow ESI.
Assay [7] deals with CI domain (M1–S253) of KaiCAA, tryptic fragment, hexamer (T. elongatus BP-1). As to the kind of experiment: native MS; KaiCAA hexamer (1 mM ATP, 5 h, 37°C) exchanged into 150 mM ammonium acetate and digested with 0.02 mg/ml trypsin for 0, 30 and 60 min, analysed directly.
Assay [8] concerns the target KaiCAA (KaiC with Ser431 and Thr432 both substituted with alanine), hexamer (T. elongatus BP-1) (UniProt Q79V60). The experiment in a line: native MS; 6:1, 6:3, 6:6 and 6:9 mixtures of KaiCAA and KaiA (up to excess KaiA), 1 mM ATP, 5 h at 37°C, nanoflow ESI.
Assay [9] has the same target. The experiment in a line: native MS; 6:3 mixture of KaiC mutant (20 uM) and KaiA (10 uM), 1 mM ATP, 5 h at 37°C, 150 mM ammonium acetate pH 6.8, nanoflow ESI.
The target of assay [10] is KaiCDD (KaiC with Ser431 and Thr432 both substituted with aspartate), hexamer (T. elongatus BP-1) (UniProt Q79V60). The description is as above.
Assay [11] concerns the target KaiC_(AA/E77Q) (KaiCAA with the catalytic glutamate Glu77 of the CI ATPase domain substituted by glutamine), hexamer (T. elongatus BP-1) (UniProt Q79V60). The description is as above.
For assay [12], the target named is KaiCAA (KaiC with Ser431 and Thr432 both substituted with alanine), hexamer (T. elongatus BP-1) (UniProt Q79V60). As to the kind of experiment: native MS; 6:3 mixture of KaiC mutant (20 uM) and KaiA (10 uM), 1 mM AMPPNP, 5 h at 37°C, 150 mM ammonium acetate pH 6.8, nanoflow ESI.
Assay [13] addresses KaiCDD (KaiC with Ser431 and Thr432 both substituted with aspartate), hexamer (T. elongatus BP-1) (UniProt Q79V60). The assay is described as above.

Where “and” joins values, the source holds several entries; their conditions need not be identical. Equal entries are not always repeated.

The text below walks through data of PMC6549140, “ATP hydrolysis by KaiC promotes its KaiA binding in the cyanobacterial circadian clock system” (Life Science Alliance, 2019).

T1 sequence (Q79V60 1-253): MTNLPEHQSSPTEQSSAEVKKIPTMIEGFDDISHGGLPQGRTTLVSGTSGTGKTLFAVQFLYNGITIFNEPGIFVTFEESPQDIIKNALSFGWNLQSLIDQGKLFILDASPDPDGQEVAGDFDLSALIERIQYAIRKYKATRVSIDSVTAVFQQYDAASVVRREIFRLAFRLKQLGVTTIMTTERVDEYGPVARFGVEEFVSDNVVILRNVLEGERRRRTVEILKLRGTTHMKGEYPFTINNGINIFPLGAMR

As for “KaiCAA (KaiC with Ser431 and Thr432 both substituted with alanine), hexamer (from UniProt Q79V60 1-518) (natural protein)”, the stoichiometry N (subunits in the oligomer) in [1] and in assay [2] was 6 throughout.

Regarding “KaiC_(AA/E77Q) (KaiCAA with the catalytic glutamate Glu77 of the CI ATPase domain substituted by glutamine), hexamer (from UniProt Q79V60 1-518) (natural protein)”, the stoichiometry N (subunits in the oligomer) in [3] was 6.

`Nc1ncnc2c1ncn2[C@@H]1O[C@H](COP(=O)(O)OP(=O)(O)OP(=O)(O)O)[C@@H](O)[C@H]1O` [ATP]: the “native mass spectrometry after trypsin digestion” value in assay [4] was “the hexameric CI domain (M1–S253) containing six ATP molecules”.

As to “KaiCDD (KaiC with Ser431 and Thr432 both substituted with aspartate), hexamer (from UniProt Q79V60 1-518) (natural protein)”, the stoichiometry N (subunits in the oligomer) in assay [5] and in assay [6] was 6 each time.

Regarding “CI domain (M1–S253) of KaiCAA, tryptic fragment, hexamer (domain or fragment)”, in assay [7], the stoichiometry N (subunits in the oligomer) worked out at 6.

B1: KaiA (natural protein)
chain: MAQSTALTICGLVYSPAIGQELVRLHTSDIDELVYFSSEREFCNYLEARRNSIACLILEWGEGTPQIITYLHHSATLLPAILIFPAAPAPPPAGPHYHIAEVILTTDQLDQLNRQIEEAITGFVKLCPGCAVPPHVLFRLPALKESSNVDPQHRLSQKLKERLGYLGVYYKRDTAFFFRRMSPADKRKLLDELRSIYRTIVLEYFNTDAKVNERIDEFVSKAFFADISVSQVLEIHVELMDTFSKQLKLEGRSEDILLDYRLTLIDVIAHLCEMYRRSIPREV
As for B1, the stoichiometry N (KaiA molecules per KaiC hexamer) in assay [8] is 2 and 4; in assay [9] it was 2; in assay [10], 2; in assay [11], 2; in [12], 2; in assay [13] it was 2.
